From publication PMC11831497

Key:
Details in all cases: glycan lost; control: CTSD WT
[1] = CTSD secretion from CRC cells
[2] = immunofluorescence co-localisation with EEA1, Rab7, LAMP1, SW480
[3] = fluorogenic Cathepsin D activity kit, cell lysate
western blot = experiment: western blot
[4] = cycloheximide chase, western blot
[5] = western blot at equal CTSD expression, SW480

Substance	expression_or_secretion [1]	localisation_or_trafficking [2]	enzymatic_activity [3]	other: ferroptosis protein levels (SLC7A11, GPX4) (western blot)	degradation_or_half_life [4]	other: cellular level of substrate ACADM [5]
Cathepsin D (CTSD): N263Q/N134Q	increases	abolishes	decreases	–	–	–
Cathepsin D (CTSD): N263Q	decreases	abolishes	decreases	decreases	decreases	increases
